The text below walks through data of the Immune Epitope Database (IEDB).

Holding throughout (test): IEDB peptide-MHC binding, purified MHC/competitive/radioactivity; filed as Kd, often an IC50 or EC50 that approximates it; ≥ and ≤ were set here for values at or beyond the usual limits of such assays
Test [1] concerns the target HLA-A*03:01.
Test [2] concerns the target HLA-A*11:01.
For test [3], the target named is HLA-A*31:01.
The target in test [4] is HLA-A*33:01.
In test [5] the target is HLA-A*68:01.
Setting [6] is: source organism: SARS coronavirus Tor2.
Setting [7] is: source organism: Dengue virus 1 Brazil/97-11/1997.
Where [8] appears, read: source organism: Dengue virus 3 Singapore/8120/1995.
[9] abbreviates: source organism: Dengue virus 2 Jamaica/1409/1983.
Setting [10] is: source organism: Vaccinia virus WR.
Where [11] appears, read: source organism: Dengue virus 4 Philippines/H241/1956.
The mark [12] stands for this setting: source organism: Dengue virus 3 Martinique/1243/1999.
Setting [13] is: source organism: Mammarenavirus machupoense.

As usually defined, the Kd is the concentration at which binding is half-saturated. Consider AINSVPWSK, for which the Kd in test [1] (setting [6]) was 0.013 µM; in test [2] (setting [6]), 0.00185 µM; in test [3] (setting [6]), 1.18 µM; in test [4] (setting [6]), 10.8 µM; in test [5] (setting [6]), 1.78 µM.

Turning to ALFEPEREK, in test [1] (setting [7]), the Kd was 0.0587 µM.

As for ALILAYSNK, the Kd is 0.0486 µM in test [1] (setting [6]); 0.0196 µM in test [2] (setting [6]); 3.8 µM in test [3] (setting [6]); at least 43.3 µM in test [4] (setting [6]); 4.52 µM in test [5] (setting [6]).

Take AMCLNTFVLK: the Kd in test [1] (setting [8]) is 0.00937 µM; in test [2] (setting [8]), 0.0233 µM.

As to AVAPSMTMR, the Kd in test [2] (setting [9]) came out at 0.0328 µM.

With AVLSAATETY, the Kd in test [1] (setting [10]) amounted to 0.237 µM; in test [2] (setting [10]) it was 0.271 µM; in test [3] (setting [10]), 10.4 µM; in test [4] (setting [10]) it was 8.8 µM; in test [5] (setting [10]) it was 3.95 µM.

Take CTDESRDRK: the Kd is 5.96 µM in test [1] (setting [10]); 0.219 µM in test [2] (setting [10]); at least 54.7 µM in test [3] (setting [10]); at least 77.7 µM in test [4] (setting [10]); 0.169 µM in test [5] (setting [10]).

Take DIKLDAVLDR: the Kd in test [1] (setting [10]) is at least 41.6 µM; in test [2] (setting [10]), at least 69.8 µM; in test [3] (setting [10]), 17.9 µM; in test [4] (setting [10]), 0.156 µM; in test [5] (setting [10]) it was 0.473 µM.

In the case of DSLLITNTK, the Kd in test [1] (setting [10]) is 2.71 µM; in test [2] (setting [10]) it was 0.661 µM; in test [3] (setting [10]) it was 18.6 µM; in test [4] (setting [10]) it was 0.00516 µM; in test [5] (setting [10]), 0.0371 µM.

Regarding DVKASMLEKY, the Kd in test [1] (setting [10]) is at least 24.7 µM; in test [2] (setting [10]), 4.94 µM; in test [3] (setting [10]), at least 36 µM; in test [4] (setting [10]) it was 16.7 µM; in test [5] (setting [10]), 0.558 µM.

Consider EDTMTYKCPR, for which the Kd in test [4] (setting [7]) amounted to 0.804 µM.

Regarding EIIGGNDMY, the Kd in test [1] (setting [10]) is 5.31 µM; in test [2] (setting [10]), at least 35.1 µM; in test [3] (setting [10]) it was at least 77.9 µM; in test [4] (setting [10]), at least 77.7 µM; in test [5] (setting [10]), 0.055 µM.

Consider EVHWNYKER, for which the Kd in test [5] (setting [11]) came to 0.0152 µM.

For EYRLRGEAR, the dissociation constant (Kd) in test [4] (setting [9]) came out at 0.0442 µM.

As to GAGLAFSLMK, in test [2] (setting [7]), the Kd stood at 0.0935 µM.

On to GFFLRKLTSR, for which the Kd in test [3] (setting [12]) amounted to 0.00135 µM.

Turning to GISLGLILLK, the Kd in test [1] (setting [11]) was 0.0165 µM; in test [2] (setting [11]) it was 0.0791 µM.

As to GLLNGQGPMK, the Kd in test [1] (setting [12]) turned out to be 0.00966 µM.

GMSYSMCTGK: the Kd in test [1] (setting [9]) was 0.0308 µM; in test [2] (setting [9]), 0.44 µM.

HSGVDVFYK: the Kd in test [2] (setting [11]) came to 0.17 µM.

As for IFSLKDTLKR, the Kd in test [4] (setting [12]) was found to be 0.32 µM.

With IMDLHPGAGK, in test [1] (setting [9]), the Kd is 0.0409 µM.

Take ISQGAGWSLK: the dissociation constant (Kd) in test [1] (setting [9]) turned out to be 0.199 µM; in test [2] (setting [9]), 0.214 µM.

With ISYDPKFEK, the Kd was found to be 0.114 µM in test [1] (setting [11]) and 0.101 µM in test [2] (setting [11]).

With KAERVIDPR, the Kd in test [3] (setting [9]) came out at 0.0566 µM.

On to LAMGIMMLK, for which the Kd in test [1] (setting [7]) stood at 0.0763 µM; in test [2] (setting [7]), 0.0327 µM; in test [5] (setting [7]), 0.0206 µM.

Regarding LMSGKGIGK, the Kd in test [1] (setting [9]) worked out at 0.0752 µM.

Take LTNTTTESR: in test [5] (setting [9]), the Kd was found to be 0.0736 µM.

As for LTYQNKVVK, the Kd is 0.0118 µM in test [1] (setting [12]) and 0.0705 µM in test [2] (setting [12]).

With MLQGRGPLK, the Kd is at most 0.001 µM in test [1] (setting [9]) and 0.124 µM in test [2] (setting [9]).

Take RFWELVDKER: in test [3] (setting [11]), the Kd turned out to be 0.00519 µM.

RFWELVDRER: the Kd in test [3] (setting [9]) was found to be 0.000343 µM.

For the sequence RLGVRATRK, the Kd in test [5] (source organism: Hepacivirus hominis) was at least 80 µM.

Regarding RLKMDKLELK, the Kd in test [1] (setting [12]) amounted to 0.0346 µM.

With RMLNILNGRK, the Kd in test [1] (setting [11]) stood at 0.0138 µM.

On to RQMEGEGVFK, for which, in test [1] (source organism: Dengue virus 2 Peru/IQT2913/1996), the dissociation constant Kd came to 0.0239 µM.

Regarding RVIDPRRCLK, the Kd in test [1] (setting [7]) was 0.00863 µM; in test [3] (setting [7]), 0.000766 µM; in test [5] (setting [7]), 0.028 µM.

SDGTFKIGLH: the Kd in test [3] (setting [13]) was at least 36.1 µM; in test [4] (setting [13]), at least 47.5 µM.

On to SGNDIANCLR, for which the Kd in test [4] (setting [7]) worked out at 0.141 µM.

As to STGSQLAKR, the Kd in test [3] (setting [7]) was found to be 0.215 µM.

In the case of VQTKPGLFK, the values for the dissociation constant Kd in test [1] (setting [9]) and in test [2] (setting [9]) were 0.144 µM and 0.102 µM, respectively.

As for VTFKTAHAK, the Kd in test [1] (setting [7]) was found to be 0.00415 µM; in test [2] (setting [7]) it was 0.0897 µM; in test [5] (setting [7]) it was 0.0439 µM.

In the case of VTFKVPHAKR, in test [5] (setting [11]), the Kd is 0.0215 µM.

For the sequence YQNKVVKVQR, in test [4] (setting [12]), the Kd was determined as 0.701 µM.
